Test results taken from patent US20120095193A1 (published 2012).

T1: human ADAMTS5 (human, UniProt Q9UNA0 262-622, limits assumed)
T1 construct: Octet and ELISA used 'recombinant human ADAMTS5'; also called recombinant human ADAMTS5; ADAMTS5 (R&D Systems 2198-AD)
T1 sequence: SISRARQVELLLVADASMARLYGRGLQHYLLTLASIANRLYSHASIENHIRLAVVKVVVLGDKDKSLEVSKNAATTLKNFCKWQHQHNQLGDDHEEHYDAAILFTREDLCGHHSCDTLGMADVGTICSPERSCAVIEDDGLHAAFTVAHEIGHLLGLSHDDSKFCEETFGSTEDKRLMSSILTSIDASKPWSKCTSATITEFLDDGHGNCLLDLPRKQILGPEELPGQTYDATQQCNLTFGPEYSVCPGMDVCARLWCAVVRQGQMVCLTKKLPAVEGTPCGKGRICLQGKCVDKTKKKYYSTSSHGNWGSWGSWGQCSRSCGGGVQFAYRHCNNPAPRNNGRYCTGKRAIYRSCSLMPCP

B1: BPC1659 (antibody, human IgG1, kappa)
heavy: not shown
light: DIQMTQSPSSLSASVGDRVTITCKASQSVGTTIVWYQQKPGKAPKLLIYSASNRHTGVPSRFSGSGSGTDFTLTISSLQPEDFATYYCQQYTSYPFTFGQGTKLEIKRTVAAPSVFIFPPSDEQLKSGTASVVCLLNNFYPREAKVQWKVDNALQSGNSQESVTEQDSKDSTYSLSSTLTLSKADYEKHKVYACEVTHQGLSSPVTKSFNRGEC
notes: Humanized, human gamma 1 wild type / kappa, with a fully functional Fc; also called 12F4 H4L0; 12F4 H4L0 IgG1 wt
B2: BPC1661 (antibody, human IgG1, kappa)
heavy: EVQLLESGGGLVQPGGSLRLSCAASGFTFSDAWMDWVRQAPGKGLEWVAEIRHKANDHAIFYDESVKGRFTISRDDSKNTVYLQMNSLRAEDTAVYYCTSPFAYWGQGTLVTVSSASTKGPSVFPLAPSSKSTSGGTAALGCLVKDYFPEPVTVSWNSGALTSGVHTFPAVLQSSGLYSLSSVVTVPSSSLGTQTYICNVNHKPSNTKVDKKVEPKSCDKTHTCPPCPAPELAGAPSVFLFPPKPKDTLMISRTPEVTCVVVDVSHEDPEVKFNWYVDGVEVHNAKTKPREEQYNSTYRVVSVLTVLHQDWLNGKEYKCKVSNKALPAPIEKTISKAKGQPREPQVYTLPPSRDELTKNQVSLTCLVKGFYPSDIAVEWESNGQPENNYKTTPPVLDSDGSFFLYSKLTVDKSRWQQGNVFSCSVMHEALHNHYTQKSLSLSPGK
light: B1 light
notes: HEK- and CHO-expressed material was tested; also called 12F4 H4L0 IgG1m(AA); Fc disabled anti-ADAMTS5 antibody

What was measured:
human ADAMTS5 [1] = target: T1, human ADAMTS5; assay: Octet QK, antigen down, incl avidity
human ADAMTS5 [2] = target: T1, human ADAMTS5; assay: Biacore, mAb down, no avidity; Biacore, mAb down, no avidity
human ADAMTS5 [3] = target: T1, human ADAMTS5; assay: Biacore, mAb from culture supernatant captured on anti-human IgG, ADAMTS5 (R&D 2198-AD) at 64 nM, 1:1 fit
human ADAMTS5 [4] = target: T1, human ADAMTS5; assay: Biacore, mAb down, no avidity
human ADAMTS5 [5] = target: T1, human ADAMTS5; assay: Biacore T100, HEK-expressed mAb captured on Protein A, ADAMTS5 (R&D 2198-AD) 0.0625-64 nM, 1:1 fit
Protocol: (§1) Protein A was immobilized on a CM5 biosensor chip by primary amine coupling. This surface was used to capture the Fc disabled anti-ADAMTS5 antibody, 12F4 H4L0 IgG1m(AA) (BPC1661), (CHO and HEK expressed material). Recombinant human ADAMTS5 (R&D Systems 2198-AD) was used as the analyte at 64 nM, 16 nM, 4 nM, 1 nM, 0.25 nM and 0.0625 nM, with a buffer injection (i.e. 0 nM) used to double reference the binding curves. Regeneration of the capture surface (i.e. removal of the captured antibody) was with 50 mM NaOH. The running buffer was HBS-EP and the run was carried out on the Biacore T100 at 25° C. The data was fitted to the 1:1 model inherent to the machines analysis software.

human ADAMTS5 [6] = target: T1, human ADAMTS5; assay: Biacore T100, CHO-expressed mAb captured on Protein A, ADAMTS5 (R&D 2198-AD) 0.0625-64 nM, 1:1 fit
Protocol: as §1

Binder	Kd (human ADAMTS5 [1]) [nM]	kon (human ADAMTS5 [2]) [M⁻¹ s⁻¹]	Kd (human ADAMTS5 [3]) [nM]	koff (human ADAMTS5 [3]) [s⁻¹]	kon (human ADAMTS5 [3]) [M⁻¹ s⁻¹]	Kd (human ADAMTS5 [4]) [nM]	Kd (human ADAMTS5 [5]) [nM]	Kd (human ADAMTS5 [6]) [nM]
B1	0.0383	489000	0.0848	4.15e-05	489000	0.085		
B2							0.074	0.07
